A short description of experiment [1]: Steady-state kinetics by stopped-flow, NaSCN (hypothiocyanate formation, 240 nm). Particulars: for activity in presence of SCN^− (NaSCN range), in words / k2: 300 nM enzyme, 79 μM H2O2; for substrate specificity: from steady-state NaSCN, NaBr and NaCl ranges; for k2: NaSCN range, linear increase of kss. Type of experiment: biochemical. The procedure:
(§1) pH- and temperature-dependent studies were carried out for each substrate.
(§2) These temperatures were reached by using a stopped-flow coupled to a cryostat.
(§3) For temperature and pH measurements, RbMPO was set at the same concentration as in the determination of steady state kinetics parameters.

Experiment [2] is described as follows: Heme reconstitution of apo wt and mutated RbMPOs (tryptophan fluorescence quenching). Particulars: 1 μM enzyme; for k2: heme reconstitution of apo enzyme, 50 mM sodium phosphate pH7.5, 25° C. Type of experiment: binding. As for the experimental part:
Sample dilutions were performed in a 50 mM pH7.5 sodium phosphate buffer.

Experiment [3] can be described thus: Steady-state kinetics by stopped-flow, NaBr (Tau-NHBr formation, 289 nm). Conditions: 300 nM enzyme, 79 μM H2O2; for kss/[Br^−]: NaBr range, linear (k2). The class given is biochemical. As for the experimental part: as §1, §2, §3
Experiment [4] is described as follows: Chlorination activity with APF probe, NaCl range. The class given is biochemical. Particulars: linear increase of kss, 1 μM RbMPOs, 79 μM H2O2, 10 μM APF. An excerpt: The chlorination activity of myeloperoxidases can be determined using the aminophenyl fluorescein (APF) probe. One can indeed detect the oxidation of APF (non-fluorescent) by HOCl into fluorescein, a fluorescent molecule that is detectable at λex=485 nm and λem=525 nm. According to such test, the fluorescence measured is proportional to the quantity of fluorescein, which itself is proportional to the quantity of HOCl produced by the myeloperoxidase.
Measurements of chlorination activity were herein performed in Corning 384-well clear-bottom (flat-bottom) plates with a reaction volume of 20 μL, in triplicate at 37° C., and in a 50 mM NaPi buffer at pH7.5. […] A 10 to 30 minutes kinetic was performed for each range value and the fluorescence intensity was compared to that of the standard fluorescein range. Thus, the measured fluorescence is proportional to the amount of fluorescein, which in turn is proportional to the amount of HOCl produced by the RbMPOs.
The slopes were measured at the onset of the reaction in order to be in initial velocity. From these values, it was possible to calculate the kss with the following equation: […]
where slopes in FI.pmoles^−1 corresponds to the slope of the fluorescein standard range: 2.95 10^6+1.13 10^5.

Experiment [5] concerns E. coli ATCC 25922. The experiment in a line: Microbicidal activity: counting colonies on Petri dishes. The class given is cell-based. Conditions: 1 h contact with 1.10^6 CFU/mL, 25 mM SCN^−, pH7.4; enzyme alone: wt RbMPO 300 nM or GOxaspniger 25 nM. The procedure:
10 mL of TSB medium (pH7.4) was inoculated with a freshly obtained colony of E. coli ATCC 25922, and the culture was incubated at 37° C. and 190 rpm overnight. In the morning, 25 mL of TSB medium were inoculated with the previous day's pre-culture to obtain an OD620 nm of 0.07 at TO. When the bacterial culture reached the exponential phase, the bacterial solution was diluted 10-fold in TSB in order to reach 1.10^6 CFU/mL. This dilution was then contacted with the enzyme solution for 1 hour (in a final volume of 1 mL). Further dilutions were then made (10^−1, 10^−4, 10−5, 10^−6). 100 μL of these solutions were spread on a Petri dish containing TSB agar medium and placed at 37° C. overnight. The next day, the surviving colonies were counted and the number of CFU/mL was calculated using the formula below: […]

Residue numbers refer to the chain shown, from its start. Numbers in names are those of the source. Entries after “also recorded” stand apart in the source; their conditions may differ.

B1: H407A: RbMPO with active site mutation H407A, generated by site-directed mutagenesis (protein)
chain: MLFWSKRTRKHPGRKRRRLRSEQLESRQLLAADFGGYRHNIYDAEDVNDDGRVSAIDALLVINAMTSETSRDENVFTDVNGDGRRSALDALRVINRIERGDVFPIDTSGDEDLNTLLPEMPSEVRSIDGSGNNPNDHLWGSVGQRLIRMAPAAYGDGISTLAGANRPSAREVSNVLSAMNTSQVLNDRGLSAFVYVWGQFIDHDLGLTESDEHGEAIDISVPEGDLWFDPMGSGEAVIPMTRTPIADGTGTSVGNPAQQFNQITAFIDGSMVYGSDAATAERLRTFAGGRLAISDNGLLPMDESGMVIAGDVRASENVGLTAIQTLFVREHNRLADEIFAADPEATDEEIYQRARLVVASLIQSITYNEFLPALLGQRAMDSYRGYDASVNPGIANEFSTAAFRLGASTLRDEVGFMSNDGRESKDEMELKDAFFHASMLEETGIDSLLKFDASVQAQEIDLAVVDSLRNFLFGPPGAGGLDLVAMNIQRGRDHGLSDYNTTRQAYGLDRVETFDQITGDVELQQKLASLYGTVDNIDLWVGLMAEDHQHDASVGELTGLIIADQFQRTRDGDRFFYKNVLTDSEVESIERSTLADLIERNTSVDGLQENVFFMQVELRGRVILASSIPPNTMPSEVREEEIRGVSGMAIELIDASGKLVDSTVSDQHGNYRFRALSETGDYQVRLSESGEAMDVLVAHGAERIRGLDFIVLA
On to B1, for which, in experiment [1], the “activity in presence of SCN^− (NaSCN range), in words” value is “not active; also recorded: scatter plot” and the substrate specificity result is given as “greater specificity for Br^− than for SCN^−”. The same molecule showed a k2 in experiment [2] of 1320 ± 18.9 M⁻¹ s⁻¹.

B2: N317M: RbMPO with active site mutation N317M, generated by site-directed mutagenesis (protein)
chain: B1 chain with N317M, A407H
As to B2, in experiment [1], the k2 came to 1074 ± 53 M⁻¹ s⁻¹ and the substrate specificity entry is “higher specificity for SCN^− than Br^−”.

B3: Q199A: RbMPO with active site mutation Q199A, generated by site-directed mutagenesis (protein)
chain: B1 chain with Q199A, A407H
For B3, in experiment [3], the “kss/[Br^−]” value was 78.19 ± 22.00 M⁻¹ s⁻¹. In experiment [1], the “activity in presence of SCN^− (NaSCN range), in words” value is on record as “not active” and the substrate specificity entry is “only active for Br”. Also, the k2 in experiment [2] amounted to 1720 ± 133 M⁻¹ s⁻¹.

B4: D202A, E316A: double mutant of RbMPO with active site mutations D202A and E316A (protein)
chain: B1 chain with D202A, E316A, A407H
On to B4, for which the “activity with Br^− (NaBr range), in words” value in experiment [3] is “lack of RbMPO activity”. Besides, the substrate specificity entry in experiment [1] is on record as “active only for SCN^−”. The molecule further returned a Kd in experiment [2] (heme reconstitution, saturation of active site by heme, pH7.5, 25° C.) of 10.9 µM.

B5: E316A: RbMPO with active site mutation E316A, generated by site-directed mutagenesis (protein)
chain: B1 chain with E316A, A407H
With B5, the “activity with Br^− (NaBr range), in words” value in experiment [3] was “lack of RbMPO activity”. The figures for the k2 in experiment [1], in experiment [2] and in experiment [4] were 1936+374 M^−1 · s^−1, 418+34 M−1 · s−1 and “no catalytic constant could be determined; also recorded: scatter plot”, respectively. Besides, in experiment [1], the substrate specificity result is “active only for SCN^−”.

B6: H203A: RbMPO with active site mutation H203A, generated by site-directed mutagenesis (protein)
chain: B1 chain with H203A, A407H
For B6, the “kss/[Br^−]” value in experiment [3] was 73.94 ± 15.07 M⁻¹ s⁻¹. In addition, the substrate specificity result in experiment [1] was “higher specificity for SCN^− than Br^−”. Besides, the values for the k2 in experiment [2] and in experiment [4] were 1840 ± 167 M⁻¹ s⁻¹ and “no catalytic constant could be determined; also recorded: scatter plot”, respectively.

B7: D202A: RbMPO with active site mutation D202A, generated by site-directed mutagenesis (protein)
chain: B1 chain with D202A, A407H
Regarding B7, the substrate specificity result in experiment [1] is recorded as “higher specificity for SCN^− than Br^−”.

B8: GOxaspniger: glucose oxidase isolated from Aspergillus niger (e.g. CAS number: 9001-37-0) (protein, UniProt P13006 17-605, looked up)
Glucose oxidase: LPHYIRSNGIEASLLTDPKDVSGRTVDYIIAGGGLTGLTTAARLTENPNISVLVIESGSYESDRGPIIEDLNAYGDIFGSSVDHAYETVELATNNQTALIRSGNGLGGSTLVNGGTWTRPHKAQVDSWETVFGNEGWNWDNVAAYSLQAERARAPNAKQIAAGHYFNASCHGVNGTVHAGPRDTGDDYSPIVKALMSAVEDRGVPTKKDFGCGDPHGVSMFPNTLHEDQVRSDAAREWLLPNYQRPNLQVLTGQYVGKVLLSQNGTTPRAVGVEFGTHKGNTHNVYAKHEVLLAAGSAVSPTILEYSGIGMKSILEPLGIDTVVDLPVGLNLQDQTTATVRSRITSAGAGQGQAAWFATFNETFGDYSEKAHELLNTKLEQWAEEAVARGGFHNTTALLIQYENYRDWIVNHNVAYSELFLDTAGVASFDVWDLLPFTRGYVHILDKDPYLHHFAYDPQYFLNELDLLGQAAATQLARNISNSGAMQTYFAGETIPGDNLAYDADLSAWTEYIPYHFRPNYHGVGTCSMMPKEMGGVVDNAARVYGVQGLRVIDGSIPPTQMSSHVMTVFYAMALKISDAILEDYASMQ
Turning to B8, in experiment [5], the surviving bacteria was 1,015,000±21,213 CFU/mL.

The Kd is a measure of binding affinity in units of concentration. Low readings indicate a tighter complex, high ones a looser complex.

(Values after patent publication US20250297232A1, “BACTERIAL MYELOPEROXIDASE-CATALASE AND APPLICATIONS THEREOF” (priority 2022, published 2025).)
